Experimental data from EP4725956A1, “MODIFIED POLYPEPTIDE AND USE THEREOF IN FIELD OF ANALGESIA” (Nanjing Anji Biotechnology Co., Ltd., priority 2023, dated 2024).
Positions of bridges follow the written chain, without caps; N, C: chain ends. Non-standard residues stand in square brackets, D forms with d. Residues, ends and D or L forms follow the SMILES beside them. No end group written: not given here. Bip = N[C@@H](Cc1ccc(-c2ccccc2)cc1)C(=O)O; Hyp = O=C(O)[C@@H]1C[C@@H](O)CN1; Nle = CCCC[C@H](N)C(=O)O; Orn = NCCC[C@H](N)C(=O)O; Aib = CC(C)(N)C(=O)O

How the values were obtained:
[1] = In vitro plasma stability and predicted half-life (HPLC main peak area, Example 3); type: in vitro ADME; details: human plasma (EDTA anticoagulant), 37°C, sampled up to 24 h, predicted half-life calculated with Winolin
Experimental: The modified peptides in this study were designed with non-natural amino acid substitutions at certain non-essential positions to enhance peptide stability and improve druggability. Peptides were dissolved in deionized water to 2 mg/mL, then diluted with acetonitrile to 1 mg/mL and filtered through an organic membrane. 200 µL of the filtrate was transferred to an LC vial as the peptide control. 300 µL of human plasma (comprising EDTA as anticoagulant, Nanjing Senbeijia Biotechnology Co., Ltd., Lot No. SBJ-P-HU011-100 mL) was mixed with 300 µL acetonitrile, centrifuged at 4°C and 12,000 rpm for 5 minutes. The supernatant was filtered through an organic membrane, and 200 µL of the filtrate was transferred to an LC vial as the plasma blank control. For peptide samples, 10 mg of peptide was weighed mixed with 5 mL of human plasma and vortexed thoroughly. 300 µL of peptide-containing plasma was mixed with 300 µL acetonitrile, centrifuged at 4°C and 12,000 rpm for 5 minutes, and the supernatant was filtered through an organic membrane. 200 µL of the filtrate was transferred to an LC vial as the 0 min sample. Peptide-containing plasma was incubated in a 37°C water bath, and samples at other time points were collected using the same procedure as the 0 min sample. For peptides AJ003 and AJ003-1, the sampling time points were 0 min, 5 min, 10 min, 20 min, 30 min, 1 h, 2 h, 4 h, 6 h, 10 h, 12 h, and 24 h. For modified peptides AJ003-34, AJ003-35, AJ003-36, AJ003-37, AJ003-38, AJ003-39, AJ003-40, AJ003-41, and AJ003-42, the time points were 0 min, 10 min, 30 min, 1 h, 4 h, 6 h, 10 h, 12 h, and 24 h. All peptide sample series were analyzed by HPLC, recording the changes in main peak areas over plasma incubation time. Predicted in vitro half-lives were calculated using the pharmacokinetic software Winolin. Due to the presence of tautomers, AJ003 peak areas were difficult to integrate accurately over time. AJ003-1 is an analog of AJ003 in which the threonine at position 5 is substituted with D-threonine; its sequence differs from AJ003 by only one amino acid configuration. […] The in vitro plasma half-lives of modified peptides AJ003-34, AJ003-35, AJ003-36, AJ003-37, AJ003-38, AJ003-39, AJ003-40, AJ003-41, and AJ003-42 were 61.9 h, 45.3 h, 65.3 h, 71.0 h, 26.7 h, 43.0 h, 84.0 h, 30.0 h, and 61.4 h, respectively.

α7 nAChR [2] = target: α7 nAChR (Homo sapiens, UniProt P36544); test: BLI (biolayer interferometry) affinity of peptides to α7 nAChR; type: binding; design: inferred from the 'similar' procedure on NTA sensors; details: NTA sensor, α7 nAChR 20 µg/mL, peptide 1.372-1000 nM in PBS
Text: BLI is a label-free technology that converts optical interference signals occurring on the surface of BLI biosensors into real-time response signals. By monitoring the molecular binding process in real time, the system determines association rate constants (ka or kon), dissociation rate constants (kd or koff), and initial binding rates, and calculates affinity (KD) by fitting analysis. Here are the specific procedures: NTA sensors (Sartorius) were placed in a pre-wetting tray, which was then positioned in a black 96-well plate with 200 µL PBS per well. The NTA sensors were pre-wetted for at least 15 minutes. The target protein α9 nAChR was diluted in PBS to 5 µg/mL, with 200 µL added per well. Test peptides were dissolved in PBS and serially diluted threefold, with concentrations from high to low as 1000 nM, 333.3 nM, 111.1 nM, 37.04 nM, 12.35 nM, 4.115 nM, and 1.372 nM, with an additional well with PBS only as a zeroconcentration control. After equilibrating the instrument baseline, the NTA sensor was used to immobilize the target protein α9 nAChR. Once immobilization was complete, the baseline was re-equilibrated, followed by a 5-minute association and a 5-minute dissociation phase. Affinity measurements of the test peptides were conducted sequentially using the above procedure. The procedure for measuring peptide affinity to α7 nAChR was similar, except that the α7 nAChR concentration was 20 µg/mL. Tables 2 and 3 show the BLI-determined affinities of alanine-scan peptide analogs with target proteins, which identified sites on the parent peptide suitable for modification. Subsequently, single-site non-natural amino acid substituted peptides were evaluated by BLI for target protein affinity. Finally, multi-site combinatorial modified peptides were measured for affinity by BLI, leading to the selection of high-affinity peptides for further screen and drug development potential. Table 2 Test Results for Affinity of Modified Peptides to α9 nAChR

[3] = system: rat paclitaxel-induced chronic chemotherapy pain model; test: Rat paclitaxel chemotherapy pain model, same dose (Example 5); type: in vivo; details: 1 mg/kg s.c.
Experimental: Male SPF (Specific Pathogen Free) SD rats weighing 180-200 g (Shanghai Institute of Planned Parenthood Research, Experimental Animal Department) were used. On the day of model induction, rats were weighed, and baseline mechanical pain thresholds were measured. Animals with large differences in body weight or pain threshold were excluded, and the remaining rats were subjected to the experimental protocol. Paclitaxel powder was dissolved in olive oil to 1 mg/mL. Each rat received an intraperitoneal injection of 2 mg/kg per dose. Four injections were administered on days 1, 3, 5, and 7. Rats in the negative control or vehicle control group received injections of the solvent used to dissolve paclitaxel. […] The blank group in Table 4 represents rats without pain modeling, and the model group represents rats with pain modeling but no drug treatment. On days 1, 3, 5, and 12, drugs were administered at fixed times. On days 1, 3, and 5, mechanical pain thresholds of the right hind paw at the corresponding time were measured at 1 h, 2.5 h, 4 h, and 5.5 h after dosing using a blunt probe. On day 12, mechanical pain thresholds were measured at 4 h and 7 h after dosing. […] AJ003-36 and AJ003-40 were thus identified as candidate molecules for further study. Paclitaxel is a widely used small-molecule chemotherapy drug that, while effective against tumors, can induce neuropathic pain in many cancer patients due to neurotoxicity. The chronic chemotherapy pain model induced in male SD rats via multiple low-dose intraperitoneal injections of paclitaxel simulates clinical chemotherapy-induced neuropathic pain. Using this model, the analgesic effects of five modified peptides, the parent peptide AJ003, and the positive control pregabalin were evaluated. […] Table 4 Dosing Scheme for Screening Analgesic Activity of Selected Modified Peptides at the Same Dose in the Paclitaxel Chemotherapy Pain Model

α7 nAChR [4] = target: T1, α7 nAChR (human, UniProt P36544 23-233); test: BLI, α7 nAChR captured on NTA sensor, peptide in solution
T1 construct: also called target protein α7 nAChR; α7 nicotinic acetylcholine receptor
T1 sequence (P36544 23-233 limits assumed): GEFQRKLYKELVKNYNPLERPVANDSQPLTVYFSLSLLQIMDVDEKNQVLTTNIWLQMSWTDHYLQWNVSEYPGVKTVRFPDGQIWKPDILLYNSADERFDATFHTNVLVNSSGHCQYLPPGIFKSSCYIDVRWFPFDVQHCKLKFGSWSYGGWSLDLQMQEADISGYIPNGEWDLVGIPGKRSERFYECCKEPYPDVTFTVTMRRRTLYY

α9 nAChR = target: T2, α9 nAChR (human, UniProt Q9UGM1 23-238); test: BLI, α9 nAChR captured on NTA sensor, peptide 1.372-1000 nM in solution
T2 construct: also called target protein α9 nAChR; α9 nicotinic acetylcholine receptor
T2 sequence (Q9UGM1 23-238 limits assumed): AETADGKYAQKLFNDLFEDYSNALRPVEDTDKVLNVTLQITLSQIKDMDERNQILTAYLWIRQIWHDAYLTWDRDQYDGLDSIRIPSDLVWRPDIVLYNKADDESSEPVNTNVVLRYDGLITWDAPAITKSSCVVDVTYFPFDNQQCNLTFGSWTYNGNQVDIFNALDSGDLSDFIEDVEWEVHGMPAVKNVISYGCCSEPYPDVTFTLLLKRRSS

CCCC[C@H](NC(=O)[C@@H](NC(=O)[C@H]1CSSC[C@H](NC(=O)[C@H](CO)NC(=O)CN)C(=O)N[C@@H](CO)C(=O)N[C@H]([C@H](C)O)C(=O)N2C[C@H](O)C[C@H]2C(=O)N2C[C@H](O)C[C@H]2C(=O)N[C@@H](CO)C(=O)N1)C(C)C)C(=O)N[C@@H](Cc1ccc(-c2ccccc2)cc1)C(=O)N[C@@H](CCCN)C(N)=O [AJ003-34, GSCS-(D-Thr)-Hyp-Hyp-S-(D-Cys)-V-Nle-Bip-Orn-NH2 (3,9 disulfide bond)] (H-GSCS[dT][Hyp][Hyp]S[dC]V[Nle][Bip][Orn]-NH2; disulfide 3-9)
half-life at 2 mg/mL [1]: 2.58 days
Kd (α7 nAChR [2]): 360 nM
ranking among the five candidate modified peptides [3]: top three analgesic candidates

CCCC[C@H](NC(=O)[C@@H](NC(=O)[C@H]1CSSC[C@H](NC(=O)[C@H](CO)NC(=O)CN)C(=O)N[C@@H](CO)C(=O)N[C@H]([C@H](C)O)C(=O)N2C[C@H](O)C[C@H]2C(=O)N2C[C@H](O)C[C@H]2C(=O)NC(C)(C)C(=O)N1)C(C)C)C(=O)N[C@@H](Cc1ccccc1)C(=O)N[C@@H](CCCN)C(N)=O [AJ003-39, GSCS-(D-Thr)-Hyp-Hyp-Aib-(D-Cys)-V-Nle-F-Orn-NH2 (3,9 disulfide bond)] (H-GSCS[dT][Hyp][Hyp][Aib][dC]V[Nle]F[Orn]-NH2; disulfide 3-9)
half-life at 2 mg/mL [1]: 1.79 days
Kd (α7 nAChR [2]): 410 nM

CCCC[C@H](NC(=O)[C@@H](NC(=O)[C@H]1CSSC[C@H](NC(=O)[C@H](CO)NC(=O)CN)C(=O)N[C@@H](CO)C(=O)N[C@H]([C@H](C)O)C(=O)N2C[C@H](O)C[C@H]2C(=O)N2C[C@H](O)C[C@H]2C(=O)NC(C)(C)C(=O)N1)C(C)C)C(=O)N[C@@H](Cc1c[nH]c2ccccc12)C(=O)N[C@@H](CCCN)C(N)=O [AJ003-42, GSCS-(D-Thr)-Hyp-Hyp-Aib-(D-Cys)-V-Nle-W-Orn-NH2 (3,9 disulfide bond)] (H-GSCS[dT][Hyp][Hyp][Aib][dC]V[Nle]W[Orn]-NH2; disulfide 3-9)
half-life at 2 mg/mL [1]: 2.56 days
Kd (α7 nAChR [2]): 21.2 nM

CCCC[C@H](NC(=O)[C@@H](NC(=O)[C@H]1CSSC[C@H](NC(=O)[C@H](CO)NC(=O)CN)C(=O)N[C@@H](CO)C(=O)N[C@H]([C@H](C)O)C(=O)N2C[C@H](O)C[C@H]2C(=O)N2C[C@H](O)C[C@H]2C(=O)N[C@@H](CO)C(=O)N1)C(C)C)C(=O)N[C@@H](Cc1ccccc1)C(=O)N[C@@H](CCCN)C(N)=O [AJ003-37, GSCS-(D-Thr)-Hyp-Hyp-S-(D-Cys)-V-Nle-F-Orn-NH2 (3,9 disulfide bond)] (H-GSCS[dT][Hyp][Hyp]S[dC]V[Nle]F[Orn]-NH2; disulfide 3-9)
half-life at 2 mg/mL [1]: 2.96 days
Kd (α7 nAChR [2]): 68.7 nM

B1: AJ003-26 (peptide)
peptide: GSCS[dT]PPS[dC]GLYS
modifications: disulfide 3-9
notes: Printed: GSCS-(D-Thr)-PPS-(D-Cys)-GLYS (3,9 disulfide bond)
Kd (α7 nAChR [4]): 6830 nM

B2: AJ003-12 (peptide)
peptide: ASCS[dT]PPS[dC]VLYS
modifications: disulfide 3-9
notes: Printed: ASCS-(D-Thr)-PPS-(D-Cys)-VLYS (3,9 disulfide bond)
Kd (α9 nAChR): 31600 nM

B3: AJ003-30 (peptide)
peptide: GSCS[dT]PPS[dC]VLWS
modifications: disulfide 3-9
notes: Printed: GSCS-(D-Thr)-PPS-(D-Cys)-VLWS (3,9 disulfide bond)
Kd (α7 nAChR [4]): 27.8 nM

B4: AJ003-1 (peptide)
peptide: GSCS[dT]PPS[dC]VLYS
modifications: disulfide 3-9
notes: Printed: GSCS-(D-Thr)-PPS-(D-Cys)-VLYS (3,9 disulfide bond)
Kd (α7 nAChR [4]): 22 nM
Kd (α9 nAChR): 86 nM

B5: AJ003-14 (peptide)
peptide: GSCA[dT]PPS[dC]VLYS
modifications: disulfide 3-9
notes: Printed: GSCA-(D-Thr)-PPS-(D-Cys)-VLYS (3,9 disulfide bond)
Kd (α9 nAChR): 13900 nM

B6: AJ003-21 (peptide)
peptide: GSCS[dT]PPS[dC]VLAS
modifications: disulfide 3-9
notes: Printed: GSCS-(D-Thr)-PPS-(D-Cys)-VLAS (3,9 disulfide bond)
Kd (α9 nAChR): 514 nM

B7: AJ003-20 (peptide)
peptide: GSCS[dT]PPS[dC]VAYS
modifications: disulfide 3-9
notes: Printed: GSCS-(D-Thr)-PPS-(D-Cys)-VAYS (3,9 disulfide bond)
Kd (α9 nAChR): 16.3 nM

B8: AJ003-18 (peptide)
peptide: GSCS[dT]PPA[dC]VLYS
modifications: disulfide 3-9
notes: Printed: GSCS-(D-Thr)-PPA-(D-Cys)-VLYS (3,9 disulfide bond)
Kd (α9 nAChR): 42.6 nM

B9: AJ003-13 (peptide)
peptide: GACS[dT]PPS[dC]VLYS
modifications: disulfide 3-9
notes: Printed: GACS-(D-Thr)-PPS-(D-Cys)-VLYS (3,9 disulfide bond)
Kd (α9 nAChR): 6690 nM

B10: AJ003-19 (peptide)
peptide: GSCS[dT]PPS[dC]ALYS
modifications: disulfide 3-9
notes: Printed: GSCS-(D-Thr)-PPS-(D-Cys)-ALYS (3,9 disulfide bond)
Kd (α9 nAChR): 317 nM

B11: AJ003-27 (peptide)
peptide: GSCS[dT]PPS[dC]VIYS
modifications: disulfide 3-9
notes: Printed: GSCS-(D-Thr)-PPS-(D-Cys)-VIYS (3,9 disulfide bond)
Kd (α7 nAChR [4]): 323 nM

B12: AJ003-22 (peptide)
peptide: GSCS[dT]PPS[dC]VLYA
modifications: disulfide 3-9
notes: Printed: GSCS-(D-Thr)-PPS-(D-Cys)-VLYA (3,9 disulfide bond)
Kd (α9 nAChR): 163 nM

B13: AJ003-24 (peptide)
peptide: GSCS[dT]PPG[dC]VLYS
modifications: disulfide 3-9
notes: Printed: GSCS-(D-Thr)-PPG-(D-Cys)-VLYS (3,9 disulfide bond)
Kd (α7 nAChR [4]): 14000 nM
